In paper PMC4569402:

Molecular target: wild-type influenza B virus nucleoprotein (BNP), B/panama/45/1990 (influenza B virus (B/panama/45/1990))
Assay: negative-stain electron microscopy

## wild-type influenza B virus nucleoprotein (BNP), B/panama/45/1990 (natural protein)
  stoichiometry N: > 6
